In paper PMC9841417 (Nucleic Acids Research, 2023):
Residue numbers refer to the chain shown, from its start. Numbers in names are those of the source.

B1: Full-length Lhr H1199A-R1206A-R1286A (natural protein, Mycobacterium smegmatis, UniProt A0QT91 1-1507, looked up)
chain: MTTNGADPLGRFSALTREWFTTAFAAPTPAQADAWSAISEGNNTLVIAPTGSGKTLAAFLWAIDRLADPAREPSQGTQVLYVSPLKALAVDVERNLRTPLTGITRVAERHGLPAPSITVGVRSGDTPPNQRRAMIANPPDVLITTPESLFLMLTSAARETLTSVRTVIVDEVHAVAATKRGAHLALSLERLDQLLDTPAQRIGLSATVRPPEEVARFLSGQAPTTIVCPPAAKTFDLSVQVPVPDMANLDNNSIWPDVEERIVDLVEAHNSSIVFANSRRLAERLTSRLNEIHAERSGIELPAGPNPEVGGGAPAHLMGSGQANGAPPLLARAHHGSVSKEQRAQVEDDLKSGRLRAVVATSSLELGIDMGAVDLVIQVEAPPSVASGLQRVGRAGHQVGEISQGVLFPKHRTDLIGCAVTVQRMQTGDIETLRVPANPLDVLAQHTVAVAALEPVDADAWFDAVRRSAPFATLPRSAFEATLDLLSGKYPSTEFAELRPRLVYDRDTGTLTARPGAQRLAVTSGGAIPDRGMFTVYLASETEKPSRVGELDEEMVYESRPGDVISLGATSWRITEITHDRVLVIPAPGQPARLPFWRGDSVGRPAELGAAVGAFTGELASLDRKAFDKRCQKMGFAGYATDNLHQLLREQREATGVVPSDTTFVVERFRDELGDWRVILHSPYGLRVHGPLALAVGRRLRERYGIDEKPTASDDGIIVRLPDSGDTPPGADLFVFDADEIEPIVTAEVGGSALFASRFRECAARALLLPRRHPGKRSPLWHQRQRAAQLLDIARKYPDFPIVLEAVRECLQDVYDVPALIELMHKIAQRRLRIVEVETATPSPFAASLLFGYVGAFMYEGDSPLAERRAAALALDTVLLSELLGRVELRELLDPAVVASTSAQLQHLTPERAARDAEGVADLLRLLGPLTEADIAQRCTADNIGAWLDGLHAAKRALPVTYAGQTWWAAVEDIGLLRDGIGVPVPVGVPAAFTESASDPLGDLIGRYARTRGPFTTEQTAARFGLGVRVASDVLSRMAVDGRLIRGEFAADLSGEQWCDAQVLKILRRRSLAALRAQVEPVSTDAYARFLPSWQHVGSTNTTGIDGLATVIEQLAGVPIPASAVESLVFPQRVRDYQPAMLDELLASGEVMWSGAGQIGNGDGWVAFHLADTAPLTLTHGAEIEFTDTHRVILETLGAGGAYFFAQLTDGTVEGTAGQELKQALWELIWAGWVTGDTFAPVRAVLSGPRRSGAPAHRQRQRPPRLSRYSVAHAQTRGTDPTVSGAWSALPAAEPDSTVRAHFQAELLLGRHGVLTKGAVGAEGVPGGFATLYKVLSTFEDAGRCQRGYFVESLGGAQFAVASTVDRLRSYLDNVDPERPEYHAVVLAATDPANPYGAALGWPTDSEAHRPGRKAGALVALVDGRLVWFLERGGRSLLSFGADADAQRAAAGALTDLVSAGRIPSLLVERINGVAVLDPDVDAERAVVQDALLGAGLSRTPRGLRLR
B2: Lhr-CTD (aa 863-1507) R915A-T1100A-D1366A (domain or fragment, Mycobacterium smegmatis, UniProt A0QT91 863-1507, looked up)
chain: SPLAERRAAALALDTVLLSELLGRVELRELLDPAVVASTSAQLQHLTPERAAADAEGVADLLRLLGPLTEADIAQRCTADNIGAWLDGLHAAKRALPVTYAGQTWWAAVEDIGLLRDGIGVPVPVGVPAAFTESASDPLGDLIGRYARTRGPFTTEQTAARFGLGVRVASDVLSRMAVDGRLIRGEFAADLSGEQWCDAQVLKILRRRSLAALRAQVEPVSTDAYARFLPSWQHVGSANTTGIDGLATVIEQLAGVPIPASAVESLVFPQRVRDYQPAMLDELLASGEVMWSGAGQIGNGDGWVAFHLADTAPLTLTHGAEIEFTDTHRVILETLGHGGAYFFRQLTDGTVEGTAGQELKQALWELIWAGWVTGDTFAPVRAVLSGPRRSGAPAHRQRQRPPRLSRYSVAHAQTRGTDPTVSGRWSALPAAEPDSTVRAHFQAELLLGRHGVLTKGAVGAEGVPGGFATLYKVLSTFEDAGRCQRGYFVESLGGAQFAVASTVARLRSYLDNVDPERPEYHAVVLAATDPANPYGAALGWPTDSEAHRPGRKAGALVALVDGRLVWFLERGGRSLLSFGADADAQRAAAGALTDLVSAGRIPSLLVERINGVAVLDPDVDAERAVVQDALLGAGLSRTPRGLRLR
B3: Lhr-CTD (aa 863-1507) H1199A-R1206A-R1286A (domain or fragment, Mycobacterium smegmatis, UniProt A0QT91 863-1507, looked up)
chain: B2 chain with A53R, A238T, H337A, R344A, R424A, A504D

Target: the molecule itself
Assay: SEC

| Protein | stoichiometry N |
| --- | --- |
| B1 | 2 |
| B2 | 4 |
| B3 | 2 |
